# Paper PMC10757926, “Two birds with one stone: human SIRPα nanobodies for functional modulation and in vivo imaging of myeloid cells” (Frontiers in Immunology, 2023)
# B1: hSIRPα Nb S8 (VHH)
# VHH: QVQLVESGGGLVQPGGSLRLSCADSEFRLDEYATGWFRQAPGKEREGVACISRSGSNTKYTDSVKGRFTISRDNAKKTVYLQMNSLKPEDTAVYYCAADLTSHYLSCSSYTDYNSWGQGTQVTVSS
# notes: selected against the entire extracellular portion of hSIRPα; source: E. coli XL-1, purified (IMAC, SEC); not shown: His tag (from the IMAC purification)
# B2: hSIRPα Nb S33 (VHH)
# VHH: EVQLVESGGGLVQPGGSLRLSCTTSGFTLDYYSVGWFRQAPGKEREGVSCITASGSSTNYANSVKGRFTISRDKVKNTVYLQMSSLKPEDTAVYYCAAEPCTVVAGILQAPTSDFGSWGQGTQVTVSS
# notes: as for B1
# B3: hSIRPα Nb S41 (VHH)
# VHH: HVQLVESGGGLVQPGGSLRLSCAASGETLDYYAIGYVRQAPGKEREGVSCISSRGDNTNYADSVKGRFTISRDNANNTVYLQMNSLKPEDTAVYYCVAIKDSWQNYYCSVGWVEYDVWGQGTQVTVSS
# notes: selected against domain 1 of hSIRPα; source: E. coli XL-1, purified (IMAC, SEC); not shown: His tag (from the IMAC purification)
# B4: hSIRPα Nb S12 (VHH)
# VHH: QVQLVESGGGLVQPGGSLRLSCLVSGFSSSYYAIGWFRQAPGKEREGVSCITRSGDTTNYADSVKGRFTISRDDARNTVYLQMNSLKTEDTAVYSCALWAWAGSGRLRCTASEYGHWGQGTQVTVSS
# notes: as for B1
# B5: hSIRPα Nb S45 (VHH)
# VHH: HVQLVESGGGLVQPGGSLRLSCAARGFSFRDSAMSWARQAPGKGLEWVGAIYSDGSTVYEKSVKGRFTISRDNAKNTMYLQMHSLKPEDSARYYCAPKGVVADEGDYSGQGTLVTVSS
# notes: as for B3
# B6: hSIRPα Nb S44 (VHH)
# VHH: QVQLQESGGGLVQPGGSLRLACAASGFTFSSYDMSWVRQAPGKGLEWVSDIKSGGGRTYYADSVKGRFTISRDNAKNTVYLQMNSLKPEDTAVYYCGSLDNSGAYTGGGQGSQVTVSS
# notes: as for B3
# B7: hSIRPα Nb S7 (VHH)
# VHH: HVQLVESGGGLVQVGDSLRLSCAPSGRTFRAYAMAWFRQAPGKEREFVAAIRWIGGTPSYKDSVKGRFTISRDNARNTFYLQMNSLEPQDTGVYYCAAEETQKGSGLGHDGRHYDYWGQGTPVTVSS
# notes: as for B1
# B8: hSIRPα Nb S17 (VHH)
# VHH: QVQLVESGGGLVQPGGSLRLSCAASGFTLDSYVIGWFRQAPGKEREGVSCISQRIGSTDYADSVKGRFTISKDNAKNTAYLQMNALKPEDTAVYYCAAGRLYYSGTYCPQGGMSYWGKGSPVTVSS
# notes: as for B1
# B9: hSIRPα Nb S42 (VHH)
# VHH: HVQLVESGGGLVQPGGSLRLSCAASGFIFSGYAMSWVRQAPGKGLEWVSDISSDGVRLYYADSVKGRFTISRDNAKNTVYLEMTSLKPDDTALYYCATSSDPQLGLDLWGKGTPVTVSS
# notes: as for B3
# B10: hSIRPα Nb S29 (VHH)
# VHH: EVQLVESGGGLVQPGGSLRLSCAASGFTSETYAIGWFRQAPGKEREGVSCISNDGGSRNYADSVKGRFTISRDNAKNTSYLQMNSLKPEDTAVYYCAAGKYYYCLGYVSDGMDYWGKGTPVTVSS
# notes: as for B1
# B11: hSIRPα Nb S43 (VHH)
# VHH: HVQLVESGGGLVQPGGSARLSCAASGFDLDYFAIGWFRQAPGKEREGVSCISTRSETTNYVDSVKGRFTISRDNAISTVYLQMNNLKPEDTAVYYCAADWADWTMTGCQMTWDDYNYWGQGAQVTVSS
# notes: as for B3
# B12: hSIRPα Nb S14 (VHH)
# VHH: EVQLVESGGGLVQPGGSLRLSCAASGFTANSYRMTWVRQAPGKGLEWVADIGTGNEWKYYPDSVKGRFTISRDAAKNTVYLQMNSLKPEDTAVYYCAKNGAVWYGEDGLDYWGKGTLVTVSS
# notes: as for B1
# B13: hSIRPα Nb S21 (VHH)
# VHH: DVQLVESGGGLVQPGGSLTLSCAASGFTSGTYALAYFRQAPGKEREGVSCISNDGGSRNYADSVKGRFTISRDNAKNTMYLQMNSLKPEDTAVYYCAAGPWYYCSDFARRPDGMDYWGKGTPVTVSS
# notes: as for B1
# B14: hSIRPα-S36K>R Nb (VHH)
# VHH: EVQLVESGGGLVQPGGSLRLSCAASGFTLDYYAIGWFRQVPGREREGVSCISSDGGGNTYYADSVRGRFTISRDNARNTVYLQMNSLRPEDSAVYSCAAGPTYYSGSYCRDPHSDYDYWGQGTQVTVSS
# notes: as the VHH of m9 (S36); source: E. coli, purified
# Biological target: T1, recombinant hSIRPα (human, UniProt P78324)
# T1 construct: signal-regulatory protein α (SIRPα), human, recombinant extracellular portion; source: bought: Acrobiosystems
# T1 sequence (P78324 31-373): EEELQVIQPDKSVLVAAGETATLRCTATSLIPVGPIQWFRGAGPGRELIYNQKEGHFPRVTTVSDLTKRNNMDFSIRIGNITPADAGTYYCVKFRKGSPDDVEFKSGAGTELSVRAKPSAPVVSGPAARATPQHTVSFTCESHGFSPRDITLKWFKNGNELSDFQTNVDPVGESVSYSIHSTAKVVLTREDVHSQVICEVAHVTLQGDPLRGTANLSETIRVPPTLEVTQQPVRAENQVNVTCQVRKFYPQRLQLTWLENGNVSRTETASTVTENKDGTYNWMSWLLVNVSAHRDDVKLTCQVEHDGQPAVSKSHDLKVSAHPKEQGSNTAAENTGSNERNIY
# Assay: HDX-MS; hSIRPα with Nb S8, S33 or S36; methods not in the text shown
# Details: both partners purified
row,binding result,Binder
1,binds,B1
2,binds,B2

# Biological target: T2, biotinylated recombinant hSIRPα (extracellular portion) (Homo sapiens, UniProt P78324, biotin (Sulfo-NHS-LC-LC-Biotin))
# T2 construct: signal-regulatory protein α (SIRPα), human, recombinant extracellular portion; also called biotinylated hSIRPα; signal-regulatory protein α; source: bought: Acrobiosystems
# T2 sequence (P78324 31-373): as above
# Assay: BLI; epitope binning: two consecutive association steps with different Nbs on recombinant hSIRPα
# Details: both partners purified
row,binding result,Binder
1,binds,B3
2,binds,B4
3,binds,B1
4,binds,B5
5,binds,B6
6,binds,B2

# Biological target: T3, full-length hSIRPα on U2OS cells (Homo sapiens, UniProt P78324)
# T3 construct: signal-regulatory protein α (SIRPα), human, full-length, co-expressed with IRES-derived GFP; also called U2OS-hSIRPα; source: U2OS, stably expressing, on live cells
# T3 sequence (P78324 31-504): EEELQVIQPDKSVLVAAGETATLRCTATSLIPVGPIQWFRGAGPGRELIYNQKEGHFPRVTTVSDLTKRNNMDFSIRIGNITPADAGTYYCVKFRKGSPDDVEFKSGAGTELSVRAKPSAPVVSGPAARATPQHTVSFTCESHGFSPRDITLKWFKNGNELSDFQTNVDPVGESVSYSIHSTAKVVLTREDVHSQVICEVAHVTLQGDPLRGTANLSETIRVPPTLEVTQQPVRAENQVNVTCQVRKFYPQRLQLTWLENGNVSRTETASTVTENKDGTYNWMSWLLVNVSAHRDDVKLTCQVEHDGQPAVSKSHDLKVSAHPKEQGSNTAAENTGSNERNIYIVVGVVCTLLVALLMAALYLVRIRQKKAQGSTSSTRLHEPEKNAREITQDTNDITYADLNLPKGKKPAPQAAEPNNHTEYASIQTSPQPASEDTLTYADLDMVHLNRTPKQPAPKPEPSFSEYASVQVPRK
# Assay: immunostaining of cells or tissue; live-cell immunofluorescence on U2OS cells expressing the target; unlabeled Nbs (1 nM to 100 nM) with Cy5-labeled anti-VHH, 1 h at 37°C
# Details: one partner purified
row,binding result,Binder
1,binds,B3
2,binds,B4
3,binds,B1
4,binds,B7
5,binds,B8
6,binds,B9
7,binds,B5
8,binds,B10
9,binds,B11
10,binds,B6
11,binds,B12
12,binds,B2
13,binds,B13

# Biological target: T4, hSIRPα domain 1 displayed on U2OS cells (Homo sapiens, UniProt P78324)
# T4 construct: signal-regulatory protein α (SIRPα), human, domain 1; also called hSIRPαD1; D1; source: U2OS, transiently expressing, on live cells
# T4 sequence (P78324 whole entry, looked up, tested part not stated): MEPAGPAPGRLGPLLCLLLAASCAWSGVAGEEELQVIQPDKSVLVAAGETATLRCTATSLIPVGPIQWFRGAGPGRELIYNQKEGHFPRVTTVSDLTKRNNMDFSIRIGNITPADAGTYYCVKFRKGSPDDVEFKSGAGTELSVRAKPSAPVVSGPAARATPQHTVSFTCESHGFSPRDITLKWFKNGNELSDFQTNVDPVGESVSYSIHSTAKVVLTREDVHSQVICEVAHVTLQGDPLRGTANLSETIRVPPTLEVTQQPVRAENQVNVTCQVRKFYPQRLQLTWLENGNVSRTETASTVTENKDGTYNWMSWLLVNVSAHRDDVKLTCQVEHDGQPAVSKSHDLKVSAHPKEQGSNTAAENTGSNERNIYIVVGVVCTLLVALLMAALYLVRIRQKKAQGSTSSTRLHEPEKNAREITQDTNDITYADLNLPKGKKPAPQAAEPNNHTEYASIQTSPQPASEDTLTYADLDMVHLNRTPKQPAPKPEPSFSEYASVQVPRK
# Assay: as above
# Details: one partner purified
row,binding result,Binder
1,binds,B3
2,binds,B4
3,binds,B8
4,binds,B9
5,binds,B5
6,binds,B11
7,binds,B6
8,binds,B12

# Biological target: T5, hSIRPα domain 2 displayed on U2OS cells (Homo sapiens, UniProt P78324)
# T5 construct: signal-regulatory protein α (SIRPα), human, domain 2; also called hSIRPαD2; D2; source: U2OS, transiently expressing, on live cells
# T5 sequence (P78324 whole entry, looked up, tested part not stated): as above
# Assay: as above
# Details: one partner purified
row,binding result,Binder
1,binds,B1
2,binds,B8
3,binds,B10
4,binds,B12
5,binds,B2
6,binds,B13

# Biological target: T6, hSIRPα domain 3 displayed on U2OS cells (Homo sapiens, UniProt P78324)
# T6 construct: signal-regulatory protein α (SIRPα), human, domain 3; also called hSIRPαD3; D3; source: U2OS, transiently expressing, on live cells
# T6 sequence (P78324 whole entry, looked up, tested part not stated): as above
# Assay: as above
# Details: one partner purified
row,binding result,Binder
1,no binding (tested: Nbs 1 nM to 100 nM),B3
2,no binding (tested: Nbs 1 nM to 100 nM),B4
3,no binding (tested: Nbs 1 nM to 100 nM),B1
4,binds,B7
5,no binding (tested: Nbs 1 nM to 100 nM),B8
6,no binding (tested: Nbs 1 nM to 100 nM),B9
7,no binding (tested: Nbs 1 nM to 100 nM),B5
8,no binding (tested: Nbs 1 nM to 100 nM),B10
9,no binding (tested: Nbs 1 nM to 100 nM),B11
10,no binding (tested: Nbs 1 nM to 100 nM),B6
11,no binding (tested: Nbs 1 nM to 100 nM),B12
12,no binding (tested: Nbs 1 nM to 100 nM),B2
13,no binding (tested: Nbs 1 nM to 100 nM),B13

# Biological target: T7, hSIRPα-V1 displayed on U2OS cells (Homo sapiens, allele V1, UniProt P78324)
# T7 construct: signal-regulatory protein α (SIRPα), human, allelic variant V1; also called hSIRPα variant V1; source: U2OS, transiently expressing, on live cells
# T7 sequence (P78324 31-504): as the sequence (P78324 31-504) above
# Assay: as above
# Details: one partner purified
row,binding result,Binder
1,binds,B1
2,binds,B7
3,binds,B5
4,binds,B2

# Biological target: T8, hSIRPβ1 displayed on U2OS cells (Homo sapiens, UniProt O00241)
# T8 construct: signal-regulatory protein β1 (SIRPβ1), human; source: U2OS, transiently expressing, on live cells
# T8 sequence (O00241 30-398): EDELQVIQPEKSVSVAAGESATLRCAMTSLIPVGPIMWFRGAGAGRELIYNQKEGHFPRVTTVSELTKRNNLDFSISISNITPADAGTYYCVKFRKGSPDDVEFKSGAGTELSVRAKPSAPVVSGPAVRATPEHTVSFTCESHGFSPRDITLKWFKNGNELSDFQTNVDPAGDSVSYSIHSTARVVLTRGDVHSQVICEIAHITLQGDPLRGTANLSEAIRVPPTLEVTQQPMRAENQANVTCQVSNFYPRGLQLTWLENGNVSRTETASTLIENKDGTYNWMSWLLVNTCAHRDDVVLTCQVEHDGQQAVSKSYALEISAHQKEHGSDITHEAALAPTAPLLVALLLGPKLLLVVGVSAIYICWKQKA
# Assay: as above
# Details: one partner purified
row,binding result,Binder
1,binds,B3
2,binds,B4
3,binds,B1
4,binds,B7
5,binds,B5
6,binds,B6
7,binds,B2

# Biological target: T9, hSIRPγ displayed on U2OS cells (Homo sapiens, UniProt Q9P1W8)
# T9 construct: signal-regulatory protein γ (SIRPγ), human; also called hSIRPy; source: U2OS, transiently expressing, on live cells
# T9 sequence (Q9P1W8 29-387): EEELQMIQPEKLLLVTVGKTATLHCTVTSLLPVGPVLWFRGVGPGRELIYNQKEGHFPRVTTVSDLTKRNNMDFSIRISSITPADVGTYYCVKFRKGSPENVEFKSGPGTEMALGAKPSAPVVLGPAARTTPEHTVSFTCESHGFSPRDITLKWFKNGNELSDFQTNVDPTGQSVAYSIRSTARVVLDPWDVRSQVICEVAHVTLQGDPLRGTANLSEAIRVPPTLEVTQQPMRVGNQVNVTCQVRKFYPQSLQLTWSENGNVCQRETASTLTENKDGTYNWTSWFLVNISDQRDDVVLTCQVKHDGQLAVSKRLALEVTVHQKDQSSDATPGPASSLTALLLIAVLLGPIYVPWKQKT
# Assay: as above
# Details: one partner purified
row,binding result,Binder
1,binds,B4
2,binds,B1
3,no binding (tested: Nbs 1 nM to 100 nM),B5
4,binds,B6

# Biological target: T10, murine SIRPα displayed on U2OS cells (Mus musculus, UniProt P97797)
# T10 construct: signal-regulatory protein α (SIRPα), mouse; also called mouse SIRPα; source: U2OS, transiently expressing, on live cells
# T10 sequence (P97797 32-513): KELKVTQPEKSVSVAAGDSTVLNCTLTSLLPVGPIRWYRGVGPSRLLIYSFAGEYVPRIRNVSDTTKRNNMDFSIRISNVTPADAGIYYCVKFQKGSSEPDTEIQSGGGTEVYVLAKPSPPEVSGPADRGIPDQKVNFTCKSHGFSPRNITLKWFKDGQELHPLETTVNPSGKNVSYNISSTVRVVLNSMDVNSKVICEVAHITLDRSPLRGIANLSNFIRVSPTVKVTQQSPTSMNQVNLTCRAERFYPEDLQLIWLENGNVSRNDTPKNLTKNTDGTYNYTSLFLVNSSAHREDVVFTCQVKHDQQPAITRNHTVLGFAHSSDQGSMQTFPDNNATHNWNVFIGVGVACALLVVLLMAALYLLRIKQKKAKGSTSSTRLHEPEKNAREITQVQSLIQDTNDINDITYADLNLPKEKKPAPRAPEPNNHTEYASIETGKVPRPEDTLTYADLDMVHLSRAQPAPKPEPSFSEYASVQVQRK
# Assay: as above
# Details: one partner purified
row,binding result,Binder
1,no binding (tested: Nbs 1 nM to 100 nM),B3
2,no binding (tested: Nbs 1 nM to 100 nM),B4
3,no binding (tested: Nbs 1 nM to 100 nM),B1
4,no binding (tested: Nbs 1 nM to 100 nM),B7
5,no binding (tested: Nbs 1 nM to 100 nM),B5
6,no binding (tested: Nbs 1 nM to 100 nM),B6
7,no binding (tested: Nbs 1 nM to 100 nM),B2

# Biological target: T2, biotinylated recombinant hSIRPα …
# Assay: BLI; Octet RED96e; biotinylated hSIRPα (5 µg/mL) immobilised on streptavidin biosensors; Nbs 0.625 nM to 320 nM in Octet buffer (PBS, 0.1% BSA, 0.02% Tween-20); association 240 s, dissociation 720 s; 1:1 model, global fit
# Details: both partners purified
row,binding result,Binder
1,binds,B14
